Test results as given in article PMC10047488.

Columns and labels:
[1] = molecular target: Gal4 DNA-binding domain fusion of parkin fragment P2 (amino acids 141-326) (human) (UniProt O60260); assay: two-hybrid; yeast two-hybrid based growth assay: diploids spotted in serial dilution on SD/-Leu/-Trp or SD/-Ade/-His/-Leu/-Trp plates with 0, 1, 5 or 10 uM PMN (peiminine), 30 °C, 3 days; and OD600 in liquid selective medium every 12 h for 48 h
[2] = molecular target: Gal4 DNA-binding domain fusion of HSD11B1L-181 fragment H2 (amino acids 92-181) (human); assay: as above
Gal4 DNA-binding domain fusion of HSD11B1L-181 fragment H2 (amino acids 92-181) (human), sequence (Q7Z5J1 92-181): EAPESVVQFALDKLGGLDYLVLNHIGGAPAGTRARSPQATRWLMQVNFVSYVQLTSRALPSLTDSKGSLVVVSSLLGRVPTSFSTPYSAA

Substance | reduction of the growth rate in selective medium after 48 h, 10 uM PMN group against the DMSO group [1] | reduction of the growth rate in selective medium after 48 h, 10 mM PMN group against the DMSO group [2]
Gal4 activation domain fusion of HSD11B1L-181 fragment H2 (amino acids 92-181) (domain or fragment) | 95% | 
Gal4 activation domain fusion of parkin fragment P2 (amino acids 141-326) (from UniProt O60260-1 141-326) (domain or fragment) |  | 93%
